In paper doi:10.1101/2020.04.03.022855 (bioRxiv, 2020):

Target: the molecule itself
Assay: cross-linking

B1: Seventeen kilodalton protein (Skp), unlabelled (natural protein, Escherichia coli, UniProt P0AEU7 21-161, looked up)
chain: ADKIAIVNMGSLFQQVAQKTGVSNTLENEFKGRASELQRMETDLQAKMKKLQSMKAGSDRTKLEKDVMAQRQTFAQKAQAFEQDRARRSNEERGKLVTRIQTAVKSVANSQDIDLVVDANAVAYNSSDVKDITADVLKQVK
stoichiometry N: 3
